These results are taken from patent US20230406907A1 (SORRENTO THERAPEUTICS, published 2023).

For the assay, the target named is SARS-CoV-2 S1 subunit (amino acids 16-685 of SEQ ID NO:1, i.e. SEQ ID NO:4) with a carboxy terminal … (SARS-CoV-2, UniProt P0DTC2 16-685).

B1: antibody S1D2 (fully human recombinant monoclonal IgG1, no Fc mutation) (antibody, V domains shown)
VH: EVQLVESGGGLIQPGGSLRLSCAASGFTVSSNYMSWVRQAPGKGLEWVSIIYPGGSTNYADSVKGRFTISRDNSRNTLYLQMNSLRAEDTAVYYCARELGYYGMDVWGQGTTVTVSS
VL: DIQMTQSPSSVSASVGDRVTITCRASQGISTWLVWYQQKPGKAPNLLIYGASSLQSGVPSRFSGSGSGTDFTLTISSLQPEDFATYYCQQANSFPYTFGQGTKLEIK
What is called IC50 is the concentration needed to halve the response being measured. A higher IC50 goes with weaker potency. On to B1, for which half-maximal inhibition (IC50) required 1.87 nM. This lies in the single-digit nanomolar range.
